In the supplement of paper PMC10724198:
± gives the standard deviation of the averaged measurements.

How the values were obtained:
Saccharomyces cerevisiae [1] = assay: protein stability index of tFT-peptide fusion (C-terminal peptide) (PSI (0-1 scale)); higher = more stable (slower turnover); details: genetic background: wild type; temperature: 30 C
Saccharomyces cerevisiae [2] = assay: as above
Method: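 MPS profiling in S. cerevisiae of the tFT-X12 degron library: putative degron peptides plus stable controls, 12 aa, fused to the C-terminus of a sfGFP-mCherry timer. Cells are FACS-sorted into 8 mCherry/sfGFP bins and deep-sequenced. PSI runs from 0 (unstable) to 1 (stable). Backgrounds are wild type, das1Δ and doa10Δ at 30 °C, and wild type, das1Δ, cdc34-1 and cdc53-1 at 37 °C; 2-3 technical replicates each.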

[3] = genetic background: cdc34-1, temperature: 37 C
[4] = genetic background: cdc53-1, temperature: 37 C
[5] = genetic background: das1 deletion, temperature: 30 C
[6] = genetic background: das1 deletion, temperature: 37 C
[7] = genetic background: doa10 deletion, temperature: 30 C
[8] = genetic background: wild type, temperature: 30 C
[9] = genetic background: wild type, temperature: 37 C
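Further: PSI is a weighted mean of sequencing reads over stability bins, variants kept only with over 10 reads, mCherry proximal and sfGFP distal, peptide attached via GGGS linker.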

Sequence	protein stability index (Saccharomyces cerevisiae [1])	protein stability index (Saccharomyces cerevisiae [2]; [3])	protein stability index (Saccharomyces cerevisiae [2]; [4])	protein stability index (Saccharomyces cerevisiae [2]; [5])	protein stability index (Saccharomyces cerevisiae [2]; [6])	protein stability index (Saccharomyces cerevisiae [2]; [7])	protein stability index (Saccharomyces cerevisiae [2]; [8])	protein stability index (Saccharomyces cerevisiae [2]; [9])
CRRLCGWLFVCV	0.46 ± 0.0068	0.466 ± 0.024	0.522 ± 0.025	0.387 ± 0.037	0.548 ± 0.014	0.396 ± 0.0074	0.38 ± 0.025	0.513 ± 0.036
GLVVMFVIAGGG	0.404 ± 0.015	0.405 ± 0.0067	0.459 ± 0.008	0.284 ± 0.05	0.5057 ± 0.00061	0.2577 ± 0.0014	0.299 ± 0.034	0.464 ± 0.015
ERFRLYFRPGIF	0.234 ± 0.091	0.635 ± 0.036	0.7213 ± 0.00075	0.653 ± 0.031	0.709 ± 0.021	0.296 ± 0.03	0.332 ± 0.015	0.58 ± 0.008
IEVGVAILLLGE	0.514 ± 0.12	0.646 ± 0.042	0.668 ± 0.0081	0.551 ± 0.03	0.6842 ± 0.0029	0.5066 ± 0.0028	0.529 ± 0.01	0.6791 ± 0.0027
FFSCFFFSVLYR	0.377 ± 0.035	0.2699 ± 0.00059	0.214 ± 0.018	0.302 ± 0.042	0.425 ± 0.031	0.469 ± 0.022	0.302 ± 0.029	0.384 ± 0.018
FFIMFFDFWGYF	0.447 ± 0.079	0.378 ± 0.01	0.462 ± 0.021	0.335 ± 0.023	0.624 ± 0.075	0.319 ± 0.0034	0.373 ± 0.047	0.57 ± 0.028
VYCQRFMLLFTP	0.4872 ± 0.0007	0.527 ± 0.059	0.535 ± 0.019	0.459 ± 0.03	0.581 ± 0.021	0.553 ± 0.011	0.433 ± 0.0094	0.55 ± 0.0071
ASAYCCMITRLN	0.172 ± 0.042	0.485 ± 0.09	0.574 ± 0.086	0.629 ± 0.012	0.611 ± 0.047	0.0987 ± 0.011	0.0882 ± 0.026	0.1737 ± 0.00037
GTWCLAMARFCA	0.4775 ± 0.0038	0.615 ± 0.056	0.755 ± 0.016	0.662 ± 0.026	0.762 ± 0.047	0.351 ± 0.025	0.375 ± 0.025	0.606 ± 0.039
LLCRVSRTRILC	0.227 ± 0.013	0.478 ± 0.026	0.533 ± 0.0097	0.426 ± 0.021	0.58 ± 0.0099	0.104 ± 0.012	0.128 ± 0.013	0.166 ± 0.022
GGGWAVLLWVQV	0.406 ± 0.022	0.387 ± 0.019	0.457 ± 0.043	0.339 ± 0.029	0.476 ± 0.0087	0.29 ± 0.01	0.317 ± 0.017	0.442 ± 0.007
VHHAFLPYTLVR	0.485 ± 0.01	0.502 ± 0.021	0.57 ± 0.011	0.375 ± 0.028	0.591 ± 0.017	0.361 ± 0.011	0.407 ± 0.019	0.5709 ± 0.0043
RARLRFASLRAF	0.176 ± 0.01	0.546 ± 0.015	0.629 ± 0.079	0.64 ± 0.13	0.644 ± 0.029	0.144 ± 0.012	0.122 ± 0.008	0.217 ± 0.018
VMLVISRLLLLF	0.174 ± 0.021	0.465 ± 0.058	0.523 ± 0.0094	0.455 ± 0.033	0.613 ± 0.018	0.111 ± 0.0019	0.105 ± 0.017	0.168 ± 0.018
GLGVIFFLLGYG	0.429 ± 0.015	0.469 ± 0.028	0.507 ± 0.023	0.336 ± 0.033	0.5631 ± 0.0018	0.292 ± 0.019	0.327 ± 0.016	0.551 ± 0.051
PPPRLPLLSCSQ	0.408 ± 0.013	0.661 ± 0.025	0.679 ± 0.0094	0.669 ± 0.016	0.6752 ± 0.00072	0.632 ± 0.024	0.638 ± 0.034	0.66 ± 0.022
GSLLWSGWSTCY	0.761 ± 0.043	0.768 ± 0.018	0.811 ± 0.011	0.698 ± 0.058	0.826 ± 0.0092	0.6696 ± 0.0058	0.693 ± 0.022	0.763 ± 0.0077
NFVVYHVAIRVP	0.243 ± 0.037	0.073 ± 0.0071	0.134 ± 0.0046	0.17 ± 0.017	0.2466 ± 0.0024	0.139 ± 0.0025	0.155 ± 0.019	0.198 ± 0.02
RFYLFLFFVRST	0.175 ± 0.0048	0.302 ± 0.055	0.4403 ± 0.0022	0.316 ± 0.039	0.5488 ± 0.0049	0.113 ± 0.0039	0.11 ± 0.008	0.131 ± 0.012
